Results from patent JP2010011840A (dated 2010).

T1: CDR1抗原ペプチド(RSSKSLLYSNGNTYLY)
T1 peptide: RSSKSLLYSNGNTYLY

B1: i41SL1-2抗体の重鎖(i41SL1-2-H) (other, not shown: a dimerising Fc or GST)
heavy: QVQLQHSGAELVRPGSSVKVSCKALGYTSTDYEIHWVKQTPVRGLEWIGAIHPGSDVIVYNQKFKGTATLTADKSSSTAYMELRSLTSEDSAVYYCTREGGSVDYVWGQGTLVTVSA
modifications: reduced with 0.2 M β-mercaptoethanol and alkylated with 0.3 M iodoacetamide (positions not stated)
B2: i41SL1-2抗体の軽鎖(i41SL1-2-L) (other, not shown: a dimerising Fc or GST)
light: DIVMTQTQLTLTINIGQPASISCKSSQSLLDSDGKTYLNWLFQRPGQSPKRLIYLVSKLDSGVPDRFTGSGSGTDFTLKISRVEAEDLGVYYCWQGTHFPLTFGAGTKLELRRA
modifications: reduced with 0.2 M β-mercaptoethanol and alkylated with 0.3 M iodoacetamide (positions not stated)

Target: T1, CDR1抗原ペプチド(RSSKSLLYSNGNTYLY)
Test: cell-based or functional assay

Binder | 回転数(kcat) | 触媒効率(kcat/Km)
B1 | ~0.005 ratio to trypsin | ~0.1 ratio to trypsin
B2 | ~0.005 ratio to trypsin | –
